Source: PMC11774805, “The C-terminal α-helix is crucial for the activity of the bacterial ABC transporter BmrA” (The Journal of Biological Chemistry, 2024)

B1: BmrA D572A (natural protein, Bacillus subtilis strain 168, UniProt O06967 1-589, looked up)
chain: MPTKKQKSKSKLKPFFALVRRTNPSYGKLAFALALSVVTTLVSLLIPLLTKQLVDGFSMSNLSGTQIGLIALVFFVQAGLSAYATYALNYNGQKIISGLRELLWKKLIKLPVSYFDTNASGETVSRVTNDTMVVKELITTHISGFITGIISVIGSLTILFIMNWKLTLLVLVVVPLAALILVPIGRKMFSISRETQDETARFTGLLNQILPEIRLVKASNAEDVEYGRGKMGISSLFKLGVREAKVQSLVGPLISLVLMAALVAVIGYGGMQVSSGELTAGALVAFILYLFQIIMPMGQITTFFTQLQKSIGATERMIEILAEEEEDTVTGKQIENAHLPIQLDRVSFGYKPDQLILKEVSAVIEAGKVTAIVGPSGGGKTTLFKLLERFYSPTAGTIRLGDEPVDTYSLESWREHIGYVSQESPLMSGTIRENICYGLERDVTDAEIEKAAEMAYALNFIKELPNQFDTEVGERGIMLSGGQRQRIAIARALLRNPSILMLDEATSSLDSQSEKSVQQALEVLMEGRTTIVIAHRLSTVVDADQLLFVEKGEITGRGTHHELMASHGLYRAFAEQQLKMNADLENKAG
notes: BmrA of Bacillus subtilis strain 168, full length, D572 replaced by Ala; source: E. coli, purified in presence of detergent (DDM)
B2: BmrA F573A (natural protein, Bacillus subtilis strain 168, UniProt O06967 1-589, looked up)
chain: MPTKKQKSKSKLKPFFALVRRTNPSYGKLAFALALSVVTTLVSLLIPLLTKQLVDGFSMSNLSGTQIGLIALVFFVQAGLSAYATYALNYNGQKIISGLRELLWKKLIKLPVSYFDTNASGETVSRVTNDTMVVKELITTHISGFITGIISVIGSLTILFIMNWKLTLLVLVVVPLAALILVPIGRKMFSISRETQDETARFTGLLNQILPEIRLVKASNAEDVEYGRGKMGISSLFKLGVREAKVQSLVGPLISLVLMAALVAVIGYGGMQVSSGELTAGALVAFILYLFQIIMPMGQITTFFTQLQKSIGATERMIEILAEEEEDTVTGKQIENAHLPIQLDRVSFGYKPDQLILKEVSAVIEAGKVTAIVGPSGGGKTTLFKLLERFYSPTAGTIRLGDEPVDTYSLESWREHIGYVSQESPLMSGTIRENICYGLERDVTDAEIEKAAEMAYALNFIKELPNQFDTEVGERGIMLSGGQRQRIAIARALLRNPSILMLDEATSSLDSQSEKSVQQALEVLMEGRTTIVIAHRLSTVVDADQLLFVEKGEITGRGTHHELMASHGLYRDAAEQQLKMNADLENKAG
notes: BmrA of Bacillus subtilis strain 168, full length, F573 replaced by Ala; source: E. coli, purified in presence of detergent (DDM)
B3: BmrA A574V (natural protein, Bacillus subtilis strain 168, UniProt O06967 1-589, looked up)
chain: MPTKKQKSKSKLKPFFALVRRTNPSYGKLAFALALSVVTTLVSLLIPLLTKQLVDGFSMSNLSGTQIGLIALVFFVQAGLSAYATYALNYNGQKIISGLRELLWKKLIKLPVSYFDTNASGETVSRVTNDTMVVKELITTHISGFITGIISVIGSLTILFIMNWKLTLLVLVVVPLAALILVPIGRKMFSISRETQDETARFTGLLNQILPEIRLVKASNAEDVEYGRGKMGISSLFKLGVREAKVQSLVGPLISLVLMAALVAVIGYGGMQVSSGELTAGALVAFILYLFQIIMPMGQITTFFTQLQKSIGATERMIEILAEEEEDTVTGKQIENAHLPIQLDRVSFGYKPDQLILKEVSAVIEAGKVTAIVGPSGGGKTTLFKLLERFYSPTAGTIRLGDEPVDTYSLESWREHIGYVSQESPLMSGTIRENICYGLERDVTDAEIEKAAEMAYALNFIKELPNQFDTEVGERGIMLSGGQRQRIAIARALLRNPSILMLDEATSSLDSQSEKSVQQALEVLMEGRTTIVIAHRLSTVVDADQLLFVEKGEITGRGTHHELMASHGLYRDFVEQQLKMNADLENKAG
notes: BmrA of Bacillus subtilis strain 168, full length, A574 replaced by Val; source: E. coli, purified in presence of detergent (DDM)
B4: BmrA E575A (natural protein, Bacillus subtilis strain 168, UniProt O06967 1-589, looked up)
chain: MPTKKQKSKSKLKPFFALVRRTNPSYGKLAFALALSVVTTLVSLLIPLLTKQLVDGFSMSNLSGTQIGLIALVFFVQAGLSAYATYALNYNGQKIISGLRELLWKKLIKLPVSYFDTNASGETVSRVTNDTMVVKELITTHISGFITGIISVIGSLTILFIMNWKLTLLVLVVVPLAALILVPIGRKMFSISRETQDETARFTGLLNQILPEIRLVKASNAEDVEYGRGKMGISSLFKLGVREAKVQSLVGPLISLVLMAALVAVIGYGGMQVSSGELTAGALVAFILYLFQIIMPMGQITTFFTQLQKSIGATERMIEILAEEEEDTVTGKQIENAHLPIQLDRVSFGYKPDQLILKEVSAVIEAGKVTAIVGPSGGGKTTLFKLLERFYSPTAGTIRLGDEPVDTYSLESWREHIGYVSQESPLMSGTIRENICYGLERDVTDAEIEKAAEMAYALNFIKELPNQFDTEVGERGIMLSGGQRQRIAIARALLRNPSILMLDEATSSLDSQSEKSVQQALEVLMEGRTTIVIAHRLSTVVDADQLLFVEKGEITGRGTHHELMASHGLYRDFAAQQLKMNADLENKAG
notes: BmrA of Bacillus subtilis strain 168, full length, E575 replaced by Ala; source: E. coli, purified in presence of detergent (DDM)
B5: BmrA Q576A (natural protein, Bacillus subtilis strain 168, UniProt O06967 1-589, looked up)
chain: MPTKKQKSKSKLKPFFALVRRTNPSYGKLAFALALSVVTTLVSLLIPLLTKQLVDGFSMSNLSGTQIGLIALVFFVQAGLSAYATYALNYNGQKIISGLRELLWKKLIKLPVSYFDTNASGETVSRVTNDTMVVKELITTHISGFITGIISVIGSLTILFIMNWKLTLLVLVVVPLAALILVPIGRKMFSISRETQDETARFTGLLNQILPEIRLVKASNAEDVEYGRGKMGISSLFKLGVREAKVQSLVGPLISLVLMAALVAVIGYGGMQVSSGELTAGALVAFILYLFQIIMPMGQITTFFTQLQKSIGATERMIEILAEEEEDTVTGKQIENAHLPIQLDRVSFGYKPDQLILKEVSAVIEAGKVTAIVGPSGGGKTTLFKLLERFYSPTAGTIRLGDEPVDTYSLESWREHIGYVSQESPLMSGTIRENICYGLERDVTDAEIEKAAEMAYALNFIKELPNQFDTEVGERGIMLSGGQRQRIAIARALLRNPSILMLDEATSSLDSQSEKSVQQALEVLMEGRTTIVIAHRLSTVVDADQLLFVEKGEITGRGTHHELMASHGLYRDFAEAQLKMNADLENKAG
notes: BmrA of Bacillus subtilis strain 168, full length, Q576 replaced by Ala; source: E. coli, purified in presence of detergent (DDM)
B6: BmrA Q577A (natural protein, Bacillus subtilis strain 168, UniProt O06967 1-589, looked up)
chain: MPTKKQKSKSKLKPFFALVRRTNPSYGKLAFALALSVVTTLVSLLIPLLTKQLVDGFSMSNLSGTQIGLIALVFFVQAGLSAYATYALNYNGQKIISGLRELLWKKLIKLPVSYFDTNASGETVSRVTNDTMVVKELITTHISGFITGIISVIGSLTILFIMNWKLTLLVLVVVPLAALILVPIGRKMFSISRETQDETARFTGLLNQILPEIRLVKASNAEDVEYGRGKMGISSLFKLGVREAKVQSLVGPLISLVLMAALVAVIGYGGMQVSSGELTAGALVAFILYLFQIIMPMGQITTFFTQLQKSIGATERMIEILAEEEEDTVTGKQIENAHLPIQLDRVSFGYKPDQLILKEVSAVIEAGKVTAIVGPSGGGKTTLFKLLERFYSPTAGTIRLGDEPVDTYSLESWREHIGYVSQESPLMSGTIRENICYGLERDVTDAEIEKAAEMAYALNFIKELPNQFDTEVGERGIMLSGGQRQRIAIARALLRNPSILMLDEATSSLDSQSEKSVQQALEVLMEGRTTIVIAHRLSTVVDADQLLFVEKGEITGRGTHHELMASHGLYRDFAEQALKMNADLENKAG
notes: BmrA of Bacillus subtilis strain 168, full length, Q577 replaced by Ala; source: E. coli, purified in presence of detergent (DDM)
B7: BmrA L578A (natural protein, Bacillus subtilis strain 168, UniProt O06967 1-589, looked up)
chain: MPTKKQKSKSKLKPFFALVRRTNPSYGKLAFALALSVVTTLVSLLIPLLTKQLVDGFSMSNLSGTQIGLIALVFFVQAGLSAYATYALNYNGQKIISGLRELLWKKLIKLPVSYFDTNASGETVSRVTNDTMVVKELITTHISGFITGIISVIGSLTILFIMNWKLTLLVLVVVPLAALILVPIGRKMFSISRETQDETARFTGLLNQILPEIRLVKASNAEDVEYGRGKMGISSLFKLGVREAKVQSLVGPLISLVLMAALVAVIGYGGMQVSSGELTAGALVAFILYLFQIIMPMGQITTFFTQLQKSIGATERMIEILAEEEEDTVTGKQIENAHLPIQLDRVSFGYKPDQLILKEVSAVIEAGKVTAIVGPSGGGKTTLFKLLERFYSPTAGTIRLGDEPVDTYSLESWREHIGYVSQESPLMSGTIRENICYGLERDVTDAEIEKAAEMAYALNFIKELPNQFDTEVGERGIMLSGGQRQRIAIARALLRNPSILMLDEATSSLDSQSEKSVQQALEVLMEGRTTIVIAHRLSTVVDADQLLFVEKGEITGRGTHHELMASHGLYRDFAEQQAKMNADLENKAG
notes: BmrA of Bacillus subtilis strain 168, full length, L578 replaced by Ala; source: E. coli, purified in presence of detergent (DDM)
B8: BmrA L569A (natural protein, Bacillus subtilis strain 168, UniProt O06967 1-589, looked up)
chain: MPTKKQKSKSKLKPFFALVRRTNPSYGKLAFALALSVVTTLVSLLIPLLTKQLVDGFSMSNLSGTQIGLIALVFFVQAGLSAYATYALNYNGQKIISGLRELLWKKLIKLPVSYFDTNASGETVSRVTNDTMVVKELITTHISGFITGIISVIGSLTILFIMNWKLTLLVLVVVPLAALILVPIGRKMFSISRETQDETARFTGLLNQILPEIRLVKASNAEDVEYGRGKMGISSLFKLGVREAKVQSLVGPLISLVLMAALVAVIGYGGMQVSSGELTAGALVAFILYLFQIIMPMGQITTFFTQLQKSIGATERMIEILAEEEEDTVTGKQIENAHLPIQLDRVSFGYKPDQLILKEVSAVIEAGKVTAIVGPSGGGKTTLFKLLERFYSPTAGTIRLGDEPVDTYSLESWREHIGYVSQESPLMSGTIRENICYGLERDVTDAEIEKAAEMAYALNFIKELPNQFDTEVGERGIMLSGGQRQRIAIARALLRNPSILMLDEATSSLDSQSEKSVQQALEVLMEGRTTIVIAHRLSTVVDADQLLFVEKGEITGRGTHHELMASHGAYRDFAEQQLKMNADLENKAG
notes: BmrA of Bacillus subtilis strain 168, full length, L569 replaced by Ala; source: E. coli, purified in presence of detergent (DDM)
B9: BmrA R571A (natural protein, Bacillus subtilis strain 168, UniProt O06967 1-589, looked up)
chain: MPTKKQKSKSKLKPFFALVRRTNPSYGKLAFALALSVVTTLVSLLIPLLTKQLVDGFSMSNLSGTQIGLIALVFFVQAGLSAYATYALNYNGQKIISGLRELLWKKLIKLPVSYFDTNASGETVSRVTNDTMVVKELITTHISGFITGIISVIGSLTILFIMNWKLTLLVLVVVPLAALILVPIGRKMFSISRETQDETARFTGLLNQILPEIRLVKASNAEDVEYGRGKMGISSLFKLGVREAKVQSLVGPLISLVLMAALVAVIGYGGMQVSSGELTAGALVAFILYLFQIIMPMGQITTFFTQLQKSIGATERMIEILAEEEEDTVTGKQIENAHLPIQLDRVSFGYKPDQLILKEVSAVIEAGKVTAIVGPSGGGKTTLFKLLERFYSPTAGTIRLGDEPVDTYSLESWREHIGYVSQESPLMSGTIRENICYGLERDVTDAEIEKAAEMAYALNFIKELPNQFDTEVGERGIMLSGGQRQRIAIARALLRNPSILMLDEATSSLDSQSEKSVQQALEVLMEGRTTIVIAHRLSTVVDADQLLFVEKGEITGRGTHHELMASHGLYADFAEQQLKMNADLENKAG
notes: BmrA of Bacillus subtilis strain 168, full length, R571 replaced by Ala; source: E. coli, purified in presence of detergent (DDM)

Molecular target: the molecule itself
Assay: native gel or EMSA; blue native PAGE of purified BmrA wt and Ala (Val) variants in DDM micelles; 4 to 16% Bis-Tris gel; dimer to monomers

Binding result, binds:
B1
B2
B3
B4
B5
B6
B7
B8
B9
